Drawing on article PMC8131599 (2021), this text covers koff and Kd for two molecules.

For experiment [1], the target named is T1, EV-D68 mature virion, strain US/MO/14-18947 (clade B) (enterovirus D68 strain US/MO/14-18947).
T1 chain 1: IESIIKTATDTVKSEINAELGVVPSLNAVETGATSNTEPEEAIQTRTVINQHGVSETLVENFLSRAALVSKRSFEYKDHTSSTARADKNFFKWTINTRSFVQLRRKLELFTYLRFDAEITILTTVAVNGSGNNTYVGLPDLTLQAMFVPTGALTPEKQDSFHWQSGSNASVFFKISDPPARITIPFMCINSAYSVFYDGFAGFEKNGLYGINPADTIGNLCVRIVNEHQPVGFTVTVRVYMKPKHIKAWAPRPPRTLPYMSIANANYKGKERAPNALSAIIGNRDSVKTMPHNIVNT
T1 chain 2: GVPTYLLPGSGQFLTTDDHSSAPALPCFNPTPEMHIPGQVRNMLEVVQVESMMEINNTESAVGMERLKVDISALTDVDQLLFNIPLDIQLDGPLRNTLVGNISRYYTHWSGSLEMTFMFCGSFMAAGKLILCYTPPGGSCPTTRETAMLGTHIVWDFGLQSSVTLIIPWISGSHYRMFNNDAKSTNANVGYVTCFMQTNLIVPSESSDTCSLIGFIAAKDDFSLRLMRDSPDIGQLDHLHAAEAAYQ
T1 chain 3: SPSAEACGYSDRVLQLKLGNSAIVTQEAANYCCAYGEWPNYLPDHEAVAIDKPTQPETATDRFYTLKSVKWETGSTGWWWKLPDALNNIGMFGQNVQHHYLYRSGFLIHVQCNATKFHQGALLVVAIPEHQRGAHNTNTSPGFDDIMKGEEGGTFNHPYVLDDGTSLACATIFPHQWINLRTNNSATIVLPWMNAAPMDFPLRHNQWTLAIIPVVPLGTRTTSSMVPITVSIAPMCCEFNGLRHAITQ
T1 chain 4: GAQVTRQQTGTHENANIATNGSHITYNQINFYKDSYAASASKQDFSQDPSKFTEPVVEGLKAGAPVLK
Description: BLI. On the technique in general: BLI is a label-free optical method that tracks binding on a fibre tip over time.

Experiment [2] concerns the target T1, EV-D68 mature virion, strain …. Kind of experiment: BLI.

Broadly, the koff is the rate constant with which the complex falls apart. A low value points to slow dissociation. As usually defined, the Kd is the equilibrium constant for the complex coming apart. High values mean weaker binding, low ones tighter binding.

B1: human-mouse chimeric MAb 8F12 (antibody, V domains shown)
VH: QVQLQQPGTELVRPGASVKLSCKASGYSFTSYWMNWVKQRPGQGLEWIGMIHPSDSETRLNQRFKDKATLTVDKSSNTAYMQLSSPTSEDSAVYYCAREGYDYDGFAYWGQGTLVTVSA
VL: QIVLTQSPAAMSASPGEKVTMTCSASSSVIYMYWYQQKPGSSPRLLIYDTSNLASGVPVRFSGSGSGTSYSLTISRMEAEDAATYYCQQWSSFPYTFGGGTKLEIK
B1 registered a koff in experiment [1] of 0.0044 s⁻¹.

B2: human-mouse chimeric MAb 2H12 (antibody, V domains shown)
VH: QVQLQQPGAELVMPGASVKMSCKASGYTFTDYWMHWVKQRPGQGLEWIGAIDTSDSYTTYNRKFKGKATLTVDESSSTAYMQLISLTSEDSAVYYCARGGGGNSPFAYWGQGTLVTVSA
VL: DIQMTQSPSSLSASLGERVSLTCRASQDIGSSLNWLQQEPDGTIKRLIYATSSLDSGVPKRFSGSRSGSDYSLTISSLESEDFVDYYCLQYASFPLTFGAGTKLELK
Take B2: the Kd in experiment [2] is 2.9 nM. Also, the off-rate (koff) in experiment [1] was 0.00055 s⁻¹.
